# Experimental data from article PMC4212957, “The serodominant secreted effector protein of Salmonella, SseB, is a strong CD4 antigen containing an immunodominant epitope presented by diverse HLA class II alleles” (Immunology, 2014).
# Residues, ends and D or L forms follow the SMILES beside them.
# Tests used:
# HLA-DRB1*04:01 = HLA-DRB1*04:01 (Homo sapiens, UniProt P01903+P01911, A100K/A169T/F76Y/I96L/K127E/L162R/M171V/N62H/P40V/Q125Y/R42H/S133A/S149N/S66Y/V115G/V209L/W38E); conditions: competitive ELISA; ratio IC50 of peptide / IC50 of reference peptide HA 306–318; lower = higher affinity; ratio 20 or less high, 20–100 moderate; three independent experiments
# HLA-DRB1*07:01 = HLA-DRB1*07:01 (Homo sapiens, UniProt P01903+P01911, A100R/A102G/A103Q/D57E/D86V/E43K/F76Y/K127E/L162R/M171V/P40G/Q125H/Q99D/R33Q/R42Y/R54Q/S133A/S66F/T210M/V115G/Y107V/Y59L/Y89S); conditions: competitive ELISA; ratio IC50 of peptide / IC50 of reference peptide HA 306–318; lower = higher affinity; ratio 20 or less high, 20–100 moderate; three independent experiments
# HLA-DRB1*03:01 = biological target: T1, HLA-DRB1*03:01 (Homo sapiens, UniProt P01903+P01911, A100K/A102G/A103R/A169T/F55Y/I96L/K41T/L162R/M171V/P40S/Q125H/Q178H/Q39Y/R42S/S66N/T106N/T262R/W38E/Y61H); experiment: Peptide/HLA-DR binding, competitive ELISA; conditions: ratio IC50 of peptide / IC50 of reference peptide MT2-16, lower = higher affinity, ratio 20 or less high, 20–100 moderate, three independent experiments
# T1 construct: HLA-DR heterodimers were purified from homozygous Epstein–Barr virus B-lymphoblastoid cell lines; host or cells: homozygous EBV B-lymphoblastoid cell line
# Procedure: (§1) HLA-DR heterodimers were purified from homozygous Epstein–Barr virus B-lymphoblastoid cell lines (HPA Culture Collections, Salisbury, UK) by affinity chromatography with the monomorphic HLA-DRα monoclonal antibody, L243.[29],[30] Binding of the SseB peptide panel to the HLA-DR molecules HLA-DRB1*01:01, 03:01, 04:01, 07:01, 09:01, 11:01, 12:02, 15:01, 15:02 was assessed by competitive ELISA, as previously described, using an automated workstation.[29],[30] We evaluated the peptide concentration able to prevent binding of 50% of the labelled peptide (IC50). Data were expressed as relative affinity: ratio of the IC50 of the peptide to the IC50 of the reference peptide, which is a high binder to the HLA class II molecule. Unlabelled forms of the biotinylated peptides were used as reference peptides.
# HLA-DRB1*09:01 = biological target: T2, HLA-DRB1*09:01 (Homo sapiens, UniProt P01903+P01911, A100R/A103E/D57H/D86V/F55Y/F60I/F76Y/I96F/K127E/L162R/M171V/P40D/Q125H/Q99R/R33Q/R42F/S133A/S66N/T210M/V115G/W38K/Y107V/Y59G/Y89S); experiment: Peptide/HLA-DR binding, competitive ELISA; conditions: for Relative binding affinity of peptide to HLA-DR molecules DRB1*0901: ratio IC50 of peptide / IC50 of reference peptide CTP 427–441, lower = higher affinity, ratio 20 or less high, 20–100 moderate, three independent experiments
# T2 construct: HLA-DR heterodimers were purified from homozygous Epstein–Barr virus B-lymphoblastoid cell lines; host or cells: homozygous EBV B-lymphoblastoid cell line
# Procedure: as §1
# HLA-DRB1*15:01 = biological target: T3, HLA-DRB1*15:01 (Homo sapiens, UniProt P01903+P01911); experiment: Peptide/HLA-DR binding, competitive ELISA; conditions: for Relative binding affinity of peptide to HLA-DR molecules DRB1*1501: ratio IC50 of peptide / IC50 of reference peptide A3 152–166, lower = higher affinity, ratio 20 or less high, 20–100 moderate, three independent experiments
# T3 construct: HLA-DR heterodimers were purified from homozygous Epstein–Barr virus B-lymphoblastoid cell lines; host or cells: homozygous EBV B-lymphoblastoid cell line
# Procedure: as §1
# HLA-DRB1*15:02 = biological target: T4, HLA-DRB1*15:02 (Homo sapiens, UniProt P01903+P01911, V115G); experiment: Peptide/HLA-DR binding, competitive ELISA; conditions: for Relative binding affinity of peptide to HLA-DR molecules DRB1*1502: ratio IC50 of peptide / IC50 of reference peptide TFR 607–620, lower = higher affinity, ratio 20 or less high, 20–100 moderate, three independent experiments
# T4 construct: HLA-DR heterodimers were purified from homozygous Epstein–Barr virus B-lymphoblastoid cell lines; host or cells: homozygous EBV B-lymphoblastoid cell line
# Procedure: as §1
# HLA-DRB1*12:02 = HLA-DRB1*12:02 (Homo sapiens, UniProt P01903+P01911, A100R/A169T/D57E/D86V/F55L/H45Y/I96F/K41T/L162R/M171V/P40S/Q125H/Q178H/Q39Y/Q99D/R42G/S66L/T262R/V114A/V67L/W38E/Y59H/Y61H/Y89S); experiment: Peptide/HLA-DR binding, competitive ELISA; conditions: for Relative binding affinity of peptide to HLA-DR molecules DRB1*1202: ratio IC50 of peptide / IC50 of reference peptide TFR 141–155, lower = higher affinity, ratio 20 or less high, 20–100 moderate, three independent experiments
# Procedure: as §1
# HLA-DRB1*01:01 = HLA-DRB1*01:01 (Homo sapiens, UniProt P01903+P01911, A100R/D57E/F55L/F60I/F76Y/I96L/L162R/M171V/P40L/Q125E/R42F/V115G/Y59C); conditions: competitive ELISA; ratio IC50 of peptide / IC50 of reference peptide HA 306–318; lower = higher affinity; ratio 20 or less high, 20–100 moderate; three independent experiments
# HLA-DRB1*11:01 = HLA-DRB1*11:01 (Homo sapiens, UniProt P01903+P01911, A100R/A169T/A87E/I96F/K41T/L162R/M171V/P40S/Q125H/Q178H/Q39Y/Q99D/R42S/S66Y/T262R/V115G/W38E); conditions: competitive ELISA; ratio IC50 of peptide / IC50 of reference peptide HA 306–318; lower = higher affinity; ratio 20 or less high, 20–100 moderate; three independent experiments
Compound,Relative binding affinity of peptide to HLA-DR molecules DRB1*0401 (HLA-DRB1*04:01),Relative binding affinity of peptide to HLA-DR molecules DRB1*0701 (HLA-DRB1*07:01),Relative binding affinity of peptide to HLA-DR molecules DRB1*0301 (HLA-DRB1*03:01),Relative binding affinity of peptide to HLA-DR molecules DRB1*0901 (HLA-DRB1*09:01),Relative binding affinity of peptide to HLA-DR molecules DRB1*1501 (HLA-DRB1*15:01),Relative binding affinity of peptide to HLA-DR molecules DRB1*1502 (HLA-DRB1*15:02),Relative binding affinity of peptide to HLA-DR molecules DRB1*1202 (HLA-DRB1*12:02),Relative binding affinity of peptide to HLA-DR molecules DRB1*0101 (HLA-DRB1*01:01),Relative binding affinity of peptide to HLA-DR molecules DRB1*1101 (HLA-DRB1*11:01),"IC50 (HLA-DRB1*15:01; DRB1*15:01, unlabelled form of the biotinylated peptide, read-out: IC50 of reference peptide) [µM]","IC50 (HLA-DRB1*09:01; DRB1*0901, unlabelled form of the biotinylated peptide, read-out: IC50 of reference peptide) [µM]","IC50 (HLA-DRB1*12:02; DRB1*1202, unlabelled form of the biotinylated peptide, read-out: IC50 of reference peptide) [µM]","IC50 (HLA-DRB1*15:02; DRB1*15:02, unlabelled form of the biotinylated peptide, read-out: IC50 of reference peptide) [µM]"
"3: SseB overlapping library peptide, residues 21–40 (GVSNADTGSQDDLSQQNPFA) [Peptide 3]",> 145,> 336,> 119,> 689,> 270,> 3 333,> 136,> 4149,,,,,
"4: SseB overlapping library peptide, residues 31–50 (DDLSQQNPFAEGYGVLLILL) [Peptide 4]",> 145,6,> 119,28,10,55,> 136,22,,,,,
"5: SseB overlapping library peptide, residues 41–60 (EGYGVLLILLMVIQAIANNK) [Peptide 5]",> 145,> 336,> 119,> 689,> 270,> 3 333,> 136,> 4149,> 278,,,,
"6: SseB overlapping library peptide, residues 51–70 (MVIQAIANNKFIEVQKNAER) [Peptide 6]",6,2,> 119,> 689,1,577,2,235,8,,,,
"7: SseB overlapping library peptide, residues 61–80 (FIEVQKNAERARNTQEKSNE) [Peptide 7]",109,> 336,89,> 689,211,> 3 333,> 136,,> 278,,,,
"8: SseB overlapping library peptide, residues 71–90 (ARNTQEKSNEMDEVIAKAAK) [Peptide 8]",> 145,> 336,> 119,> 689,> 270,> 3 333,> 136,> 4149,> 278,,,,
"9: SseB overlapping library peptide, residues 81–100 (MDEVIAKAAKGDAKTKEEVP) [Peptide 9]",> 145,> 336,41,626,200,> 3 333,> 136,1508,8,,,,
"CC(C)C[C@H](NC(=O)[C@H](Cc1ccc(O)cc1)NC(=O)[C@H](C)NC(=O)[C@H](CCCNC(=N)N)NC(=O)[C@H](CC(C)C)NC(=O)[C@H](CCC(N)=O)NC(=O)[C@H](CCC(=O)O)NC(=O)[C@H](C)NC(=O)[C@@H](N)CCC(=O)O)C(=O)N[C@@H](CC(=O)O)C(=O)NCC(=O)N[C@H](C(=O)NCC(=O)N[C@H](C(=O)N[C@@H](CCC(=O)O)C(=O)O)C(C)C)[C@@H](C)O [A3 152–166, reference compound]",,,,,,,,,,0.037,,,
"CC[C@H](C)[C@H](NC(=O)[C@H](CCCNC(=N)N)NC(=O)[C@H](CO)NC(=O)[C@@H](NC(=O)[C@H](C)NC(=O)[C@@H]1CCCN1C(=O)[C@H](CC(N)=O)NC(=O)[C@H](Cc1ccc(O)cc1)NC(=O)[C@H](Cc1ccccc1)NC(=O)CNC(=O)[C@H](Cc1c[nH]cn1)NC(=O)[C@@H](N)C(C)C)C(C)C)C(=O)N[C@H](C(=O)N[C@@H](CCC(=O)O)C(=O)N[C@@H](C)C(=O)O)C(C)C [CTP 427–441, reference compound] (H-VHGFYNPAVSRIVEA-OH)",,,,,,,,,,,0.015,,
"CC[C@H](C)[C@H](NC(=O)[C@@H](NC(=O)CNC(=O)[C@@H](N)[C@@H](C)O)[C@@H](C)O)C(=O)N[C@@H](CCCCN)C(=O)N[C@@H](CC(C)C)C(=O)N[C@@H](CC(C)C)C(=O)N[C@@H](CC(N)=O)C(=O)N[C@@H](CCC(=O)O)C(=O)N[C@@H](CC(N)=O)C(=O)N[C@@H](CO)C(=O)N[C@@H](Cc1ccc(O)cc1)C(=O)N[C@H](C(=O)N1CCC[C@H]1C(=O)N[C@@H](CCCNC(=N)N)C(=O)O)C(C)C [TFR 141–155, reference compound] (H-TGTIKLLNENSYVPR-OH)",,,,,,,,,,,,0.073,
"CC(C)C[C@H](NC(=O)[C@H](CC(C)C)NC(=O)[C@H](CCC(N)=O)NC(=O)[C@H](CO)NC(=O)[C@H](CC(N)=O)NC(=O)[C@H](Cc1ccc(O)cc1)NC(=O)[C@H](CCCNC(=N)N)NC(=O)[C@H](CCC(=O)O)NC(=O)[C@H](Cc1ccc(O)cc1)NC(=O)[C@H](CC(=O)O)NC(=O)[C@H](CC(C)C)NC(=O)[C@H](CC(N)=O)NC(=O)[C@@H](N)CC(C)C)C(=O)N[C@@H](CO)C(=O)O [TFR 607–620, reference compound] (H-LNLDYERYNSQLLS-OH)",,,,,,,,,,,,,0.003
